# The nanobody polyreactivity screen of Harvey et al. (2022)
# Test: yeast display, Sf9 membrane polyspecificity reagent, FACS + sequencing; frameworks hold sequencing errors
# How it was run: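 Nanobodies from a synthetic yeast display library (Saccharomyces cerevisiae BJ5465), induced 36–48 hours with galactose, were stained 1 hour at 4 °C with 10% biotinylated, detergent-solubilized Sf9 membrane reagent, enriched on streptavidin microbeads, then FACS-sorted. Anti-HA (expression) and streptavidin (reagent binding) fluorescence set low and high (top ~1%) gates. Polyreactivity labels come from the gate of origin. Genes were colony-PCR amplified, MiSeq 2 × 250 sequenced and filtered by CDR length.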
row,Sequence,polyreactivity (PSR sort gate)
1,QVQLVESGGGLVQAGGSLRLSCAASGSTFGGYAMGWYRQAPGKEREFVAAISWRGGGTYYADSVKGRFTISRDNAMNTVYLQMNSLKPEDTAVYYCAAERRYTYQYNYWGQGTQVTVSS,high polyreactivity
2,QVQLVESGGGLVQAGGSLRLSCAASGSTFGGYAMGWYRQAPGKERELVAAISQSGTRSYYADSVKGRFTISRDNAKNTVYLQMNSLKPEDTAVYYCAAEKRFRKYDYWGQGTQVTVSS,high polyreactivity
3,QVQLVESGGGLVQAGGSLRLSCAASGSTFGGYAMGWYRQAPGKERELVAGISSGTSTYYADSVKGRFTISRDNAKNTVYLQMNSLKPEDTAVYYCAKYSYYRKLGYWGQGTQVTVSS,high polyreactivity
4,QVQLVESGGGLVQAGGSLRLSCAASGSTFGGYAMGWYRQAPGKERELVATINYSDGSTYYADSVKGRFTISRDNAKNTVYLQMNSLKPEDTAVYYCAKRFGSGWAWFGYWGQGTQVTVSS,low polyreactivity
5,QVQLVESGGGLVQAGGSLRLSCAASGSTFGGYAMGWYRQAPGKERELVATITGGGSTNYADSVKGRFTISRDNAKNTVYLQMNSLKPEDTAVYYCAATEKYQYKVFYDPVGAYDYWGQGTQVTVSS,low polyreactivity
6,QVQLVESGGGLVQAGGSLRLSCAASGSTFGGYTMGWYRQAPGKERELVAAITSGGGRTYYADSVKGRFTISRDNSKNTVYLQMNSLKPEDTAVYYCATGYKGLYWKYDYWGQGTLVTVSS,high polyreactivity
7,QVQLVESGGGLVQAGGSLRLSCAASGSTFGHNAMGWYRQATGKERELVAAISKSGGRTYYADSVKGRFTISRDNAKNTVYLQMNSLKPEDTAVYYCAKDGVVGSGTLNIYDYWGQGTQVTVSS,low polyreactivity
8,QVQLVESGGGLVQAGGSLRLSCAASGSTFGHYAMGCYRQAPGKERDLVAAISWSGASTYYADSVKGRFTISRDNAKNTVYLQMNSLKPEDTAVYYCAAESYRQTYYVGDGYEDDYWGQGTQVTVSS,low polyreactivity
9,QVQLVESGGGLVQAGGSLRLSCAASGSTFGHYAMGRYRQAPGKESELVSAISTSGGRTYYADSVKGRFTISRDNAKNTVYLQMNSLKPEDTAVYYCATRRYGVDKFDYWGQGTQVTVSS,high polyreactivity
10,QVQLVESGGGLVQAGGSLRLSCAASGSTFGKYAMGWYRQAPGKERELVAAITESDSSTYYADSVKGRFTLSRDNAKNTVYLQMNSLKPEDTAVDYCAADSLYSYPWSTYFYGGDYWGQGTQVTVSS,low polyreactivity
11,QVQLVESGGGLVQAGGSLRLSCAASGSTFGLNVMGWYRQAPGKEREFVAGISRSGGRTYYADSVKGRFTISRDNAKNTVYLQMNSLKPADTAVYYCAADYWTGITPDAIGDYWGQGTQVTVSS,low polyreactivity
12,QVQLVESGGGLVQAGGSLRLSCAASGSTFGLYAMGWYRQAPGKERELVAAITIRGGSTYYADSVKGRFTISRDNAKNTVYLQMNSLKPEDTAVYYCAADYWYGGFEYWGQGTQVTVSS,low polyreactivity
13,QVQLVESGGGLVQAGGSLRLSCAASGSTFGNYAMGWYRQAPGKEMELVAAISTSGDSTYYADSVKGRFTISRDNAKYTVYLQMNSLKPEDSAVYYCKARGIATGNRHEYWGQGTQVTVSS,low polyreactivity
14,QVQLVESGGGLVQAGGSLRLSCAASGSTFGNYAMGWYRQAPGKERELVAAIRSRGGRTYYADSVKGRFTISRDYAKNTVYLQMNSLKPVDTAVYYCARDSRTGYYYWGQGTQVTVSS,high polyreactivity
15,QVQLVESGGGLVQAGGSLRLSCAASGSTFGNYAMGWYRQAPGKERELVAAISVGDGSTYYADSVKGRFTISRDNAKNTVYLQMNSLKPEDTAFYYCAADFVYPSWHYDYWGQGTQVTVSS,high polyreactivity
16,QVQLVESGGGLVQAGGSLRLSCAASGSTFGNYAMGWYRQAPGKERELVATISRSGGSTYYADSVQGRFTISRDIAKNTVNLQMNSLKPEDTAVYYCNRRYYTRKPDYNSWGQGTQVTVSS,high polyreactivity
17,QVQLVESGGGLVQAGGSLRLSCAASGSTFGPNAMGWYRQAPGKERELVAAIRSNGGRTYYADSVKGRFTISRDNAKITVYLQMNSLKPEDSAVYYCADPHYPYDTPYGYWGQGTQVTVSS,low polyreactivity
18,QVQLVESGGGLVQAGGSLRLSCAASGSTFGPYAMGWYRQAPGKERELVAAISSRGARTYYADSVKGRFTISRDNAKNTVYLQMNSLKPEDTAVYYCANTYHGTAYDYWGQGTQVTVSS,high polyreactivity
19,QVQLVESGGGLVQAGGSLRLSCAASGSTFGPYAMGWYRQAPGKERELVADISGGSTNYADSVKGRFTISRDNAKNTVYLQMNSLKPEDTAVYYGAADSYPAYLGFVGFDYWGQGTQVTVSS,low polyreactivity
20,QVQLVESGGGLVQAGGSLRLSCAASGSTFGPYAMGWYRQAPGKERELVAVITTSGSTNYADSVKGRFTISRDNAKNTVYLQMNSLKPEDTAVSYCAARYRYYGTNRYYYWGQGTQVTVSS,high polyreactivity
21,QVQLVESGGGLVQAGGSLRLSCAASGSTFGPYTMGWYRQAPGKERELVATISSGGSTYYADSVKGRFTISRDNAKNTVYLQMNSLKPEDTAVYYCARDSYWEMDYWGQGTQVTVSS,low polyreactivity
22,QVQLVESGGGLVQAGGSLRLSCAASGSTFGQNAMGWYRQAPGKERELVAAITRRGVSTYYADSVKGRFTISRDNAKNTVYLQMNSLKPEDTAVYYCAKRYHPNSPYDYWGQGTQVTVSS,low polyreactivity

row,Sequence,polyreactivity (PSR sort gate)
1,QVQLVESGGGLVQAGGSLRLSCAASGSTFGQYVMGWYRQAPGKERELVAAISSADSTNYADSVKGRFTISRDNAKNTVYLQMNSLKPEDTAVYYCAAARRPTYWPVYPYFGYEYWGQGTQVTVSS,low polyreactivity
2,QVQLVESGGGLVQAGGSLRLSCAASGSTFGRNALGWYRQAPGKERELVASISWGGGSTYYADSVKGRFTISRDNSKNTVYLQMNSLKTEDTAVYYCNARRFLWSQLSGSFSYDYWGQGTQVTVSS,high polyreactivity
3,QVQLVESGGGLVQAGGSLRLSCAASGSTFGRNAMGWYRQAPGKERELVAAINWSDGSTHYADSVKGRFTISRDNAKNTVYLQMNSLKPEDTAVYYCGADAWSWPVDYNYWGQGTQVTVSS,low polyreactivity
4,QVQLVESGGGLVQAGGSLRLSCAASGSTFGRNTMGWYRQAPGKERELVAAITSCDTTTYADSVKGRFTISLDNAKNTVYIQMNSLKPEDTAVYYCAVDPVRGLDYSWMDYWGQGTQVTVSS,low polyreactivity
5,QVQLVESGGGLVQAGGSLRLSCAASGSTFGRYAMGWYRQAPGKERELVAAIDWSGGSTYYADSVKGRFTISRDNAKNTVYLQMNSLKPEDTAVYYCAAEAYSQYRTPGFDYYYWGQGTQVTVSS,high polyreactivity
6,QVQLVESGGGLVQAGGSLRLSCAASGSTFGRYAMGWYRQAPGKERELVAAISKSGGSTYYADSVKGRFTISRDNEKNTVYLQMNSLNPEDTAVYYCAATTTRYSYEYWGQGTQVTVSS,low polyreactivity
7,QVQLVESGGGLVQAGGSLRLSCAASGSTFGRYAMGWYRQAPGKERELVAAITRSGGRTYYADSVKGRFTISRDNAKNTVYLQLNSLKPEDTAVYYCAAVGNLYYTSHWQYDYWGQGTQVTVSS,high polyreactivity
8,QVQLVESGGGLVQAGGSLRLSCAASGSTFGSNAMGWYRQAPGKEREWVAAISWTGGSTYYADSVKGRFTISRDKAKNPVYVHMNSLKPEETAVYYCNDYGYGYPLYRYDYWGQGTQVTVSS,low polyreactivity
9,QVQLVESGGGLVQAGGSLRLSCAASGSTFGSNAMGWYRQAPGKESELVAAIRWSGGSTYYADSVKGRFTISRDNAKNTVYLQMNSLKPEDTAVYYCNAVYGRQYRGYNYKYYYWGQGTQVTVSS,high polyreactivity
10,QVQLVESGGGLVQAGGSLRLSCAASGSTFGSYAMGWYRHAPGKERELVAAINGGSSTNYADSVKGRFTISRDNAKNTVYLQMNSLKPEDTAVYYCNATETHRLYDSWGQGTQVTVSS,low polyreactivity
11,QVQLVESGGGLVQAGGSLRLSCAASGSTFGSYAMGWYRQAPGKERELVAAISGRGGRTSYADSVKGRFTISRDNAKNTVYLQMNSLKPQDTAVYYCAAKRGGLGVTAASLYDYYFWGQGTQVTVSS,high polyreactivity
12,QVQLVESGGGLVQAGGSLRLSCAASGSTFGSYAMGWYRQAPGKERELVAAITASGGSTYYADSVKGRFTISRDNGKNTVYLQMKSLKPEDTAVYYCAADTTYIPLSIEYDYWGQGTQVTVSS,low polyreactivity
13,QVQLVESGGGLVQAGGSLRLSCAASGSTFGSYAMGWYRQAPGKERELVAAITTSGSSTYYADSVKGRFTISRDNAKNTVYLQMNSLKPEDTAVYYCNARPRRLSYSSYNYWGQGTQVTVSS,high polyreactivity
14,QVQLVESGGGLVQAGGSLRLSCAASGSTFGTYAMGWYRQAPGKERELVAAITRSGGSTYYADSVKGRFTISRDNAKNTVYLQKNSLKPEDTAVYYCAKYVFSYPQSYAYYYWGHGTQVTVSS,high polyreactivity
15,QVQLVESGGGLVQAGGSLRLSCAASGSTFGTYAMGWYRQAPGKERELVAAITRSGGSTYYADSVKGRFTISRDNAKNTVYLQMNSLKPEDTAVYYCAAVSKGYYYWGQGTQVTVSS,high polyreactivity
16,QVQLVESGGGLVQAGGSLRLSCAASGSTFGTYAMGWYRQAPGKERELVATITRRGGRTYYADSVKGRFTISRDNAKNTVYLQMNSLKPEDTAVYYCNAVVRQQGAYDYWGQGTQVTVSS,high polyreactivity
17,QVQLVESGGGLVQAGGSLRLSCAASGSTFGTYVMGWYRQAPGKERELVAAITYSGGSTYYADSVTGRFTISRDNAKNTVYLQMNSLKPEDTAVYYCNADVWSYWYKFDYWGQGTQVTVSS,high polyreactivity
18,QVQLVESGGGLVQAGGSLRLSCAASGSTFGVNAMGWYRQAPGKERELVAAISWSGGSTYYADSVKGRFTISRDNAKNTVYLQMNSLKPEDTAVYYCAADFDYGIWGRYEYWGQGTQVTVSS,high polyreactivity
19,QVQLVESGGGLVQAGGSLRLSCAASGSTFGVNAMVWYRQAPGKERELVAGISVDDSTTYYADSVKGRFTISRDNAKNTVYLQMNSLKPEDTAVYYCAAEREKTLYYLSRFDYWGQGTQVTVSS,low polyreactivity
20,QVQLVESGGGLVQAGGSLRLSCAASGSTFGVNVMGWYRQAPGKERELVAAISRSGGRTYYADSVKGRFTISRDNAKNTVYLQMNSLKPEDTAVYYCNTRGYDYWGQGTQVTVSS,high polyreactivity
21,QVQLVESGGGLVQAGGSLRLSCAASGSTFGVYAMGWYRQAPGKERELVAAISWSSGSTYYADSVKGRFTISRDNAKNTVYLQLNSLKPEDTAVYYCNKDVYGYYRTGPRGYDYWGQGTQVTVSS,high polyreactivity
